Experimental data: the supplement of paper PMC9732359
± gives the uncertainty stated by the source.

Experiment: protein stability index of a GFP-peptide fusion (yeast GPS) (PSI 1-4); higher = more stable; sorted into four equal gates, so the index is relative within each strain
Summary of the method: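 For each peptide, the protein stability index sums the read frequency in every gate after multiplying it by the gate number. Read frequencies came from plasmids that were PCR-amplified from each gate and Illumina-sequenced, with reads assigned to strains by barcodes. The gates were four equal bins of GFP/Cherry fluorescence ratio applied to mid-log yeast in leucine-free medium carrying a pooled library of tiled 17-residue yeast protein peptides fused downstream of GFP on a Cherry-expressing plasmid.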

KGKYRNRRWTQRRGPLV [RPL4A]
protein stability index (doa10∆): 2.97 ± 0.17
protein stability index (pdr5∆): 3.29 ± 0.18

NDTSSGTNAMLPSPESL [SNF5]
protein stability index (doa10∆): 2.73 ± 0.042
protein stability index (pdr5∆): 2.84 ± 0.049
protein stability index (san1∆): 2.74 ± 0.035
protein stability index (ubr1∆): 2.8 ± 0.042

IWLRKTSQMDLARDTPS [RRP4]
protein stability index (doa10∆): 1.61 ± 0.041
protein stability index (pdr5∆): 1.98 ± 0.051
protein stability index (san1∆): 1.54 ± 0.097
protein stability index (ubr1∆): 1.5 ± 0.044

NTGIVSSTTGMSYVVRI [RPT3]
protein stability index (doa10∆): 3.17 ± 0.11
protein stability index (pdr5∆): 3.04 ± 0.19
protein stability index (san1∆): 3.31 ± 0.11
protein stability index (ubr1∆): 3.25 ± 0.09

KNESATINEMMKHLGRS [FAS2]
protein stability index (doa10∆): 2.6 ± 0.082
protein stability index (pdr5∆): 2.87 ± 0.087
protein stability index (san1∆): 2.65 ± 0.062
protein stability index (ubr1∆): 2.81 ± 0.095

PRQRMEEVVSNDEGVWD [PRP8]
protein stability index (doa10∆): 3.45 ± 0.068
protein stability index (pdr5∆): 3.45 ± 0.056
protein stability index (san1∆): 2.87 ± 0.06
protein stability index (ubr1∆): 3.06 ± 0.048

ANNNGSNLQRAQNVPMN [GAL11]
protein stability index (doa10∆): 3.09 ± 0.096
protein stability index (pdr5∆): 3.54 ± 0.12
protein stability index (san1∆): 3.17 ± 0.099
protein stability index (ubr1∆): 3.09 ± 0.085

KPTDATGNTTSKSAFSF [YOR098C/NUP1]
protein stability index (doa10∆): 2.04 ± 0.12
protein stability index (pdr5∆): 2.57 ± 0.088
protein stability index (san1∆): 2.1 ± 0.12
protein stability index (ubr1∆): 2.46 ± 0.11

NPSQGVSNSGAQDEEIH [UBP6]
protein stability index (doa10∆): 2.04 ± 0.074
protein stability index (pdr5∆): 2.22 ± 0.068
protein stability index (san1∆): 2.04 ± 0.12
protein stability index (ubr1∆): 2.11 ± 0.059

SLLLSSSFKEDCLSFAP [SSN2]
protein stability index (doa10∆): 2.56 ± 0.24
protein stability index (pdr5∆): 3.17 ± 0.14
protein stability index (san1∆): 2.76 ± 0.14
protein stability index (ubr1∆): 3.2 ± 0.19

LFSLEKPNLNYFKSILL [SWI1]
protein stability index (doa10∆): 1.38 ± 0.056
protein stability index (pdr5∆): 1.59 ± 0.055
protein stability index (san1∆): 1.62 ± 0.082
protein stability index (ubr1∆): 1.86 ± 0.051

EVYTLVDSQGLPYNWDA [ARP7]
protein stability index (doa10∆): 3.31 ± 0.2
protein stability index (pdr5∆): 3.56 ± 0.2
protein stability index (san1∆): 2.85 ± 0.14
protein stability index (ubr1∆): 3.22 ± 0.15

THFLLNIYDQLRNKLIE [RRP6]
protein stability index (doa10∆): 2.62 ± 0.044
protein stability index (pdr5∆): 2.69 ± 0.062
protein stability index (san1∆): 2.38 ± 0.051
protein stability index (ubr1∆): 2.8 ± 0.033

YVDEQSKNELKKAFTSY [RPS16A]
protein stability index (doa10∆): 3.06 ± 0.059
protein stability index (pdr5∆): 3.21 ± 0.044
protein stability index (san1∆): 3.07 ± 0.051
protein stability index (ubr1∆): 3.13 ± 0.052

KNDSLEKTINDLQRTQT [YIL149C/MLP2]
protein stability index (doa10∆): 2.97 ± 0.074
protein stability index (pdr5∆): 3.02 ± 0.063
protein stability index (san1∆): 2.82 ± 0.059
protein stability index (ubr1∆): 2.89 ± 0.046

TFKDGVILGADSRTTTG [PRE3]
protein stability index (pdr5∆): 2.8 ± 0.12
protein stability index (san1∆): 2.69 ± 0.19
protein stability index (ubr1∆): 2.59 ± 0.14

TVHSKSRTRAHAQSKRE [RPL19A]
protein stability index (doa10∆): 3.19 ± 0.074
protein stability index (pdr5∆): 3.07 ± 0.079
protein stability index (san1∆): 2.96 ± 0.068
protein stability index (ubr1∆): 3.19 ± 0.069

TVQLTFLIDVLKIYAQI [YCG1]
protein stability index (doa10∆): 1.58 ± 0.047
protein stability index (pdr5∆): 1.99 ± 0.05
protein stability index (san1∆): 1.74 ± 0.059
protein stability index (ubr1∆): 1.7 ± 0.042

VEWNDQVEKLGKKMEAR [RPN9]
protein stability index (pdr5∆): 3.28 ± 0.15
protein stability index (san1∆): 3.29 ± 0.12
protein stability index (ubr1∆): 3.34 ± 0.14

TQPKSSSSMDMQANTNA [SSN3]
protein stability index (doa10∆): 2.55 ± 0.06
protein stability index (pdr5∆): 2.43 ± 0.046
protein stability index (san1∆): 3.13 ± 0.041
protein stability index (ubr1∆): 2.45 ± 0.039

KKNRDKKIFGTGKRLAK [RPS24A]
protein stability index (doa10∆): 3.4 ± 0.05
protein stability index (pdr5∆): 3.23 ± 0.039
protein stability index (san1∆): 3.291 ± 0.028
protein stability index (ubr1∆): 3.26 ± 0.033

NNDVFTIGPYRARKDRM [SSN3]
protein stability index (doa10∆): 3.67 ± 0.27
protein stability index (pdr5∆): 3.11 ± 0.26
protein stability index (san1∆): 3.43 ± 0.14
protein stability index (ubr1∆): 3.32 ± 0.13

QRQDFERVRLRPEQLSN [SNF6]
protein stability index (doa10∆): 1.98 ± 0.05
protein stability index (pdr5∆): 2.43 ± 0.062
protein stability index (san1∆): 2.21 ± 0.064
protein stability index (ubr1∆): 2.25 ± 0.034

EVWSVSWNLTGTILSSA [YGL100W/SEH1]
protein stability index (doa10∆): 1.7 ± 0.07
protein stability index (pdr5∆): 1.5 ± 0.083
protein stability index (san1∆): 1.33 ± 0.15
protein stability index (ubr1∆): 1.63 ± 0.061

LCYMAPMTVKLVQLPKS [POP3]
protein stability index (doa10∆): 2.37 ± 0.065
protein stability index (pdr5∆): 2.23 ± 0.063
protein stability index (san1∆): 2.39 ± 0.06
protein stability index (ubr1∆): 2.76 ± 0.065

KIFQTTPEKDLFIGLFT [YCS4]
protein stability index (doa10∆): 2.1 ± 0.088
protein stability index (pdr5∆): 1.84 ± 0.055
protein stability index (san1∆): 2.41 ± 0.11
protein stability index (ubr1∆): 2.58 ± 0.066

QGMEGTVDLALFGSPPF [YMR129W/POM152]
protein stability index (doa10∆): 3.39 ± 0.079
protein stability index (pdr5∆): 3.41 ± 0.068
protein stability index (san1∆): 3.35 ± 0.076
protein stability index (ubr1∆): 3.21 ± 0.047

LLFIVGQVAIKTLVYLE [YCS4]
protein stability index (pdr5∆): 1.74 ± 0.2
protein stability index (ubr1∆): 3.18 ± 0.1

NLGEYESAVKYALAAKD [RPN2]
protein stability index (doa10∆): 2.42 ± 0.15
protein stability index (pdr5∆): 2.65 ± 0.09
protein stability index (san1∆): 2.7 ± 0.09
protein stability index (ubr1∆): 2.8 ± 0.054

IVGVLQDDADPMVSVMK [RPT2]
protein stability index (doa10∆): 1.99 ± 0.057
protein stability index (pdr5∆): 2.31 ± 0.057
protein stability index (san1∆): 2.49 ± 0.11
protein stability index (ubr1∆): 2.26 ± 0.056

AAAAVCEKWAASSWAKK [RPL14A]
protein stability index (doa10∆): 2.52 ± 0.052
protein stability index (pdr5∆): 3.08 ± 0.089
protein stability index (san1∆): 2.56 ± 0.056
protein stability index (ubr1∆): 2.68 ± 0.058

MQKQHEMKTQAAELQEK [SNF6]
protein stability index (doa10∆): 1.79 ± 0.14
protein stability index (pdr5∆): 3 ± 0.17
protein stability index (san1∆): 3.05 ± 0.055
protein stability index (ubr1∆): 2.54 ± 0.063

NNSTGIANDNVITPHFI [SWI1]
protein stability index (doa10∆): 2.69 ± 0.041
protein stability index (pdr5∆): 2.95 ± 0.042
protein stability index (san1∆): 2.86 ± 0.031
protein stability index (ubr1∆): 2.9 ± 0.033

NFSNVTDLTNNSTDGAK [YIL149C/MLP2]
protein stability index (doa10∆): 2.82 ± 0.041
protein stability index (pdr5∆): 3.15 ± 0.046
protein stability index (san1∆): 3.41 ± 0.035
protein stability index (ubr1∆): 2.85 ± 0.034

PNVCNMKQYRDFLGVAS [PRP28]
protein stability index (doa10∆): 1.99 ± 0.14
protein stability index (pdr5∆): 2.26 ± 0.091
protein stability index (san1∆): 2.37 ± 0.077
protein stability index (ubr1∆): 1.99 ± 0.072

NANTIETAKMIENMTKE [FAS2]
protein stability index (doa10∆): 2.72 ± 0.073
protein stability index (pdr5∆): 3.35 ± 0.078
protein stability index (san1∆): 2.97 ± 0.065
protein stability index (ubr1∆): 3.35 ± 0.095

IAIAGTGQIEGLLDYMR [COR1]
protein stability index (doa10∆): 3.37 ± 0.088
protein stability index (pdr5∆): 3.54 ± 0.081
protein stability index (san1∆): 3.17 ± 0.061
protein stability index (ubr1∆): 3.15 ± 0.057

DLIKFSAETLSELIRTT [FAS1]
protein stability index (doa10∆): 2.1 ± 0.076
protein stability index (pdr5∆): 2.29 ± 0.059
protein stability index (san1∆): 2.1 ± 0.081
protein stability index (ubr1∆): 2.12 ± 0.073

ISCPLIGVIQLAHYVVT [FAS1]
protein stability index (doa10∆): 1.57 ± 0.072
protein stability index (pdr5∆): 1.2 ± 0.041
protein stability index (san1∆): 1.24 ± 0.093
protein stability index (ubr1∆): 1.27 ± 0.042

KSITLKGRNNESNNKKY [YDL088C/ASM4]
protein stability index (doa10∆): 3.19 ± 0.086
protein stability index (pdr5∆): 3.11 ± 0.066
protein stability index (san1∆): 3.13 ± 0.059
protein stability index (ubr1∆): 3.08 ± 0.064

LRFGEGASGEERLMSRP [PUP2]
protein stability index (doa10∆): 3.52 ± 0.15
protein stability index (pdr5∆): 3.36 ± 0.12
protein stability index (san1∆): 3.21 ± 0.1
protein stability index (ubr1∆): 3.23 ± 0.065

QKKNFLFKPLNKTLTLD [ARP7]
protein stability index (doa10∆): 2.83 ± 0.093
protein stability index (pdr5∆): 2.45 ± 0.14
protein stability index (san1∆): 2.08 ± 0.25
protein stability index (ubr1∆): 1.89 ± 0.26

SEVGDAFIFGLQDELKE [SMC3]
protein stability index (doa10∆): 3.2 ± 0.067
protein stability index (pdr5∆): 3.31 ± 0.061
protein stability index (san1∆): 3.1 ± 0.057
protein stability index (ubr1∆): 3.25 ± 0.072

KSLAMEHKSQVVLYNYY [CSN12]
protein stability index (doa10∆): 1.19 ± 0.053
protein stability index (pdr5∆): 1.34 ± 0.071
protein stability index (san1∆): 1.32 ± 0.11
protein stability index (ubr1∆): 1.55 ± 0.035

NKEKSNSPTSFFDGSAS [YOR098C/NUP1]
protein stability index (doa10∆): 3.1 ± 0.068
protein stability index (pdr5∆): 3.07 ± 0.057
protein stability index (san1∆): 3.02 ± 0.041
protein stability index (ubr1∆): 2.95 ± 0.081

YKATATGPKQQEITTNL [SCL1]
protein stability index (doa10∆): 3.17 ± 0.064
protein stability index (pdr5∆): 3 ± 0.11
protein stability index (san1∆): 2.93 ± 0.057
protein stability index (ubr1∆): 3.29 ± 0.078

KPVYKGKKLTDEINTAQ [RET1]
protein stability index (doa10∆): 2.92 ± 0.12
protein stability index (pdr5∆): 2.99 ± 0.094
protein stability index (san1∆): 2.75 ± 0.084
protein stability index (ubr1∆): 3.2 ± 0.077

GSSALADNKEDVKKPFS [YLR335W/NUP2]
protein stability index (doa10∆): 3.48 ± 0.099
protein stability index (pdr5∆): 3.16 ± 0.067
protein stability index (san1∆): 3.06 ± 0.06
protein stability index (ubr1∆): 3.21 ± 0.062

KALAIFVPVPSLAGFHK [RPS7A]
protein stability index (doa10∆): 2.29 ± 0.051
protein stability index (pdr5∆): 1.93 ± 0.04
protein stability index (san1∆): 1.77 ± 0.069
protein stability index (ubr1∆): 1.85 ± 0.039

EAGLQLCRQGHNMLNLL [PRP8]
protein stability index (doa10∆): 2.24 ± 0.079
protein stability index (pdr5∆): 2.29 ± 0.12
protein stability index (san1∆): 2.07 ± 0.14
protein stability index (ubr1∆): 1.99 ± 0.06

IRDSIPQMDSFDKDLER [DIS3]
protein stability index (doa10∆): 3.15 ± 0.092
protein stability index (pdr5∆): 3.32 ± 0.1
protein stability index (san1∆): 3.19 ± 0.061
protein stability index (ubr1∆): 3.01 ± 0.12

WIKNEQERQRQIQKNGP [PRP8]
protein stability index (doa10∆): 2.75 ± 0.092
protein stability index (pdr5∆): 3.09 ± 0.11
protein stability index (san1∆): 2.85 ± 0.14
protein stability index (ubr1∆): 2.84 ± 0.094
